Results taken from paper PMC11979331, “RcSRR1 interferes with the RcCSN5B-mediated deneddylation of RcCRL4 to modulate RcCO proteolysis and prevent rose flowering under red light”.

Molecular target: T1, RcFRSL3 (UniProt A0A2P6RRT4 1-153)
T1 sequence: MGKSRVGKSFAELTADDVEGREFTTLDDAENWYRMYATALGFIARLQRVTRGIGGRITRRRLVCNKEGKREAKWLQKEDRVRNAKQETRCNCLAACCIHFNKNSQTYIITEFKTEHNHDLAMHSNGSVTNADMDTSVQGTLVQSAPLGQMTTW
Experiment: EMSA; Light Shift Chemiluminescent EMSA kit (buffer per manufacturer), about 2 ug protein, 24 C, 20 min; 6% native PAGE in 0.5x TBE; pH and salt not given
Conditions: protein: recombinant; tags: GST (pGEX4T-1) per construct section; called His-RcFRSL3 in EMSA section; label: 3' biotin on both strands; blunt

B1: RcSRR1 promoter G-box probe (dsDNA)
DNA 1: TTCAGGTACCGTATTCACGTTTTTCGAAGTTCAGGTACTA
DNA 2: TAGTACCTGAACTTCGAAAAACGTGAATACGGTACCTGAA
B1: binds.
